# Target: T1, Fc alpha receptor-ECD-streptavidin-Alexa488 (human, UniProt P24071 22-227, labeled with Alexa488 fluorescent molecules (sites not given))
# T1 construct: Tetrameric antigen made in Expi293F cells and labelled with Alexa488 for flow cytometry; Any linker or purification tag (Ni-NTA resin was used) is not described; also called Fc alpha receptor-ECD-streptavidin-Alexa488 probe; Fc alpha receptor-ECD-streptavidin-Alexa488 antigen; not shown: streptavidin tag
# Experiment: flow cytometry, legend of FIG. 8
# T1 sequence (P24071 22-227 limits assumed): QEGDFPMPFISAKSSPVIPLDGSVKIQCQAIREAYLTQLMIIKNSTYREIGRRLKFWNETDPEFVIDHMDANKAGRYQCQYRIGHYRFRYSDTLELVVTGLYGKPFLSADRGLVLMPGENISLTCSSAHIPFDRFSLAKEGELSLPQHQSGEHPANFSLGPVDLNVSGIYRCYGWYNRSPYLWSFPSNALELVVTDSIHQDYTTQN
row,binding result,Binder
1,binds,"scFv antibody variant JS116 (scFv, V domains shown, No full VH/VL is printed) VH: QVQLQESGGGLVQPGGSLRLACAGSGFTFSNFAMAWVRLAPGKGLEWVSGISDDGTITDYADSVKGRFTISRDNSKNTLYLQMNSLRAEDTAVYYCVRVPPPAPVQGPDYWGQGTTVTVSS VL: DVVMTQSPSAMSASVGDRVTITCRASQGISNYLAWFQQKPGKVPKRLIYAASSLQGGVPSRFRGRGSGTDFTLSISCLQSEDFATYYCQQYHSYPLTFGGGTKLSVLG"

# Target: T1, Fc alpha …
# Experiment: flow cytometry, scFv displayed on E. coli spheroplasts, 50 nM Alexa488-labelled antigen
row,Binder,binding result
1,"scFv antibody variant JS144 (scFv, V domains shown) VH: QVQLQESGGGLVQPGGSLRLACAGSGFTFSNFAMAWVRLAPGKGLEWVSGISDDGTITDYADSVKGRFTISRDNSKNTLYLQMNSLRAEDTAVYYCVRVPSPAPVQGPDYWGQGTTVTVSS VL: DVVMTQSPSAMSASVGDRVTITCRASQGISNYLAWFQQKPGKVPKRLIYAASSLQGGVPSRFRGRGSGTDFTLSISCLQSEDFATYYCQQYHSYPLTFGGGTKLSVLG",binds
2,"scFv antibody variant JS48 (scFv, V domains shown) VH: QVQLQESGGGLVQPGGSLRLTCAGSGFTFSNFAMAWVRLAPGKGLEWVSGISDDGTITDYADSVKGRFTISRDNSKNTLYLQMNSLRAEDTAVYYCVKVPSPAPMQGPDYWGQGTLVTVSS VL: ETTLTQSPSSLSASVGDRVTITCRASQSISTYLNWYQQKPGKAPKSLIYGASNLQSGVSSQFSGRGPGTDFTLTISSLQPEDFATYYCQQGNSVPLTFGGGTKVDIKR",binds
3,"scFv antibody variant JS30 (scFv, V domains shown) VH: EVQLVESGPGQVKPSETLSLTCSVSGGSISSRDWWGWVRQPPGEGLEWIGEIYHSGTTNYNPSLKSRVTMSMDTSKNQLSLKLTGVTAVDTAVYYCVTYSASDAAFDSWGQGTLVTVSS VL: ETTLTQSPSSLSASVGDRITITCRASQSISTCLNWYQQKPGKAPKSLIYGASILQSGVSSQFSGSGPGTDFTLTIGSLQPEGFATYYCQQGNSVPLTFGGGTKVDIKR",binds

# Other lines, results leading:
row,binding result,Binder
1,binds,"scFv antibody variant JS41 (scFv, V domains shown) VH: EVQLVESGPGQVKPSETLSLTCSVSGGSISSRDWWGWVRQPPGEGLEWIGEIYHSGTTNYNPSLKSRVTMSMDTSKNQLSLKLTGVTAVDTAVYYCVTYSAYDAAFDSWGQGTLVTVSS VL: ETTLTQSPSSLSASVGDRITITCRASQSISTYLSWYQQKPGKAPKSLIYGASNLQSGVSSQFRGSGPGTDFTLTISSLQPEDFATYYCQQGNSVPLTFGGGTKVDIKR"
2,binds,"scFv antibody variant JS9 (scFv, V domains shown) VH: EVQLVGSGGGVVQPGRSLRLSCAASGFNFDDHAMHWVRQAPGKGLEWVSSISGSGGDTYYADSVKGRFTIARDNSKNTLYLQMNSLRAEDTAVYYCATEARGLAHWGQGTLVTVSS VL: SSELTQDPAVSVALGQTASITCSGHKLGERYACWYQQKPGQSPVLVIYQDTKRPSGIPERFSGSNTGNTATLTITGTQAMDEADYYCQAWDSSTVVFGGGTKLTVLG"

# Reference: patent US20230399407A1 (KOREA UNIVERSITY RESEARCH AND BUSINESS FOUNDATION, published 2023)
